Laboratory results taken from patent US20230218777A1 (Stanford University, published 2023).

Target: SARS-CoV-2 Spike protein (SARS-CoV-2, UniProt P0DTC2 14-1273)
Assay: cell-based or functional assay

B1: affinity-matured nanobody R13 (VHH)
VHH: QVQLQESGGGLVQAGGSLRLSCAASGTIFQVSSMGWYRQAPGKERKFVATIADGSSTNYAGSVKGRFTISRDNAKNTVYLQMNSLKPEDTAVYYCAALGQVSEYNSASYEWTYPYWGQGTQVTVSS
  neutralizing effect calculated by IC50 (SARS-CoV-2 pseudovirus on hACE2-293T cells), against parental R13: ~100 times

B2: affinity-matured nanobody R18 (VHH)
VHH: QVQLQESGGGLVQAGGSLRLSCAASGSISRDYDMGWYRQAPGKERKFVAGINVGGTTNYAGSVKGRFTISRDNAKNTVYLQMNSLKPEDTAVYYCAVHAVYTDGWEDGYLYPLPYWGQGTQVTVSS
  neutralizing effect calculated by IC50 (SARS-CoV-2 pseudovirus on hACE2-293T cells), against parental R18: ~100 times
